Source: US20140087995A1 (published 2014)
One block for each binder: values may come before it. Numbered stars: 1 amine (or outer) side, 2 acyl side, 3 side chain; on linkers, the order of the positions; unused ones are H or OH. Bridge positions count the residues as written; N and C are the ends. Side chains are listed from the residue outwards. Ends that are not written are not given here. * marks the point of attachment. C20 diacid = O=C(O)CCCCCCCCCCCCCCCCCCC(=O)*; γGlu = O=C(O)[C@H](CCC(=O)[*:2])N[*:1]

What was measured:
[1] = target: T1, human amylin receptor (amylin 3(a) receptor: human calcitonin receptor co-expressed with RAMP-3) (human, UniProt P30988 25-474; O60896 24-148, limits assumed); experiment: cell-based or functional assay
T1 sequence (looked up) 1: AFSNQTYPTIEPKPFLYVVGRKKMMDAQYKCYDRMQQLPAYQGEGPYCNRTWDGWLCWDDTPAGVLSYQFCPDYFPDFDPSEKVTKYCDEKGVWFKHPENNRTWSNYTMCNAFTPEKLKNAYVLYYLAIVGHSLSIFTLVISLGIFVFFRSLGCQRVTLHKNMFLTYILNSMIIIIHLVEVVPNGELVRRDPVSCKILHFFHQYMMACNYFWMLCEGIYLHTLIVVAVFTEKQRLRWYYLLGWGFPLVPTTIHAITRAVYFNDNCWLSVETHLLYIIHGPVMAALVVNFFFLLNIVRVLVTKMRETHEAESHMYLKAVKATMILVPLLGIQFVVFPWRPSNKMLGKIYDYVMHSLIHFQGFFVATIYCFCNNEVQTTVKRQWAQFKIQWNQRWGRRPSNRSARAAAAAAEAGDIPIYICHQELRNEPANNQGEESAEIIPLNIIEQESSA
T1 sequence (looked up) 2: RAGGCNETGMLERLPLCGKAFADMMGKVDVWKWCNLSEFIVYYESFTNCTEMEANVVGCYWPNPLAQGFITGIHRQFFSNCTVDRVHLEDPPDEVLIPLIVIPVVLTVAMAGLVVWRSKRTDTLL

[2] = target: T2, human calcitonin receptor (human, UniProt P30988 25-474); experiment: cell-based or functional assay
T2 sequence (looked up): T1 sequence (looked up) 1

B1: N^ε1-[(4S)-4-carboxy-4-(19-carboxynonadecanoylamino)butanoyl]-[Arg17,Pro21,Pro27,His35]-h-amylin (peptide)
peptide: K([γGlu-C20 diacid])CNTATCATQRLANFLRHSSPNFGAIPSSTNVGSHTY-NH2
modifications: disulfide 2-7; N-terminus assumed
SMILES: CC[C@H](C)[C@H](NC(=O)[C@H](C)NC(=O)CNC(=O)[C@H](Cc1ccccc1)NC(=O)[C@H](CC(N)=O)NC(=O)[C@@H]1CCCN1C(=O)[C@H](CO)NC(=O)[C@H](CO)NC(=O)[C@H](Cc1c[nH]cn1)NC(=O)[C@H](CCCNC(=N)N)NC(=O)[C@H](CC(C)C)NC(=O)[C@H](Cc1ccccc1)NC(=O)[C@H](CC(N)=O)NC(=O)[C@H](C)NC(=O)[C@H](CC(C)C)NC(=O)[C@H](CCCNC(=N)N)NC(=O)[C@H](CCC(N)=O)NC(=O)[C@@H](NC(=O)[C@H](C)NC(=O)[C@@H]1CSSC[C@H](NC(=O)[C@@H](N)CCCCNC(=O)CC[C@H](NC(=O)CCCCCCCCCCCCCCCCCCC(=O)O)C(=O)O)C(=O)N[C@@H](CC(N)=O)C(=O)N[C@@H]([C@@H](C)O)C(=O)N[C@@H](C)C(=O)N[C@@H]([C@@H](C)O)C(=O)N1)[C@@H](C)O)C(=O)N1CCC[C@H]1C(=O)N[C@@H](CO)C(=O)N[C@@H](CO)C(=O)N[C@H](C(=O)N[C@@H](CC(N)=O)C(=O)N[C@H](C(=O)NCC(=O)N[C@@H](CO)C(=O)N[C@@H](Cc1c[nH]cn1)C(=O)N[C@H](C(=O)N[C@@H](Cc1ccc(O)cc1)C(N)=O)[C@@H](C)O)C(C)C)[C@@H](C)O
notes: also called compound 60
hAmylin-R funct. EC50 [1]: 351 pM | hCTR funct. EC50 [2]: 5360 pM

B2: N^ε1-[(4S)-4-carboxy-4-(19-carboxynonadecanoylamino)butanoyl]-[His14,Arg17,Pro21,Pro27,Arg34]-h-amylin (peptide)
peptide: K([γGlu-C20 diacid])CNTATCATQRLAHFLRHSSPNFGAIPSSTNVGRNTY-NH2
modifications: disulfide 2-7; N-terminus assumed
SMILES: CC[C@H](C)[C@H](NC(=O)[C@H](C)NC(=O)CNC(=O)[C@H](Cc1ccccc1)NC(=O)[C@H](CC(N)=O)NC(=O)[C@@H]1CCCN1C(=O)[C@H](CO)NC(=O)[C@H](CO)NC(=O)[C@H](Cc1c[nH]cn1)NC(=O)[C@H](CCCNC(=N)N)NC(=O)[C@H](CC(C)C)NC(=O)[C@H](Cc1ccccc1)NC(=O)[C@H](Cc1c[nH]cn1)NC(=O)[C@H](C)NC(=O)[C@H](CC(C)C)NC(=O)[C@H](CCCNC(=N)N)NC(=O)[C@H](CCC(N)=O)NC(=O)[C@@H](NC(=O)[C@H](C)NC(=O)[C@@H]1CSSC[C@H](NC(=O)[C@@H](N)CCCCNC(=O)CC[C@H](NC(=O)CCCCCCCCCCCCCCCCCCC(=O)O)C(=O)O)C(=O)N[C@@H](CC(N)=O)C(=O)N[C@@H]([C@@H](C)O)C(=O)N[C@@H](C)C(=O)N[C@@H]([C@@H](C)O)C(=O)N1)[C@@H](C)O)C(=O)N1CCC[C@H]1C(=O)N[C@@H](CO)C(=O)N[C@@H](CO)C(=O)N[C@H](C(=O)N[C@@H](CC(N)=O)C(=O)N[C@H](C(=O)NCC(=O)N[C@@H](CCCNC(=N)N)C(=O)N[C@@H](CC(N)=O)C(=O)N[C@H](C(=O)N[C@@H](Cc1ccc(O)cc1)C(N)=O)[C@@H](C)O)C(C)C)[C@@H](C)O
notes: also called compound 85
Ratio hCT/hAmylin funct. [1]: 26.6 | hAmylin-R funct. EC50 [1]: 146 pM | hCTR funct. EC50 [2]: 3880 pM

B4: N^ε1-[(4S)-4-carboxy-4-(19-carboxynonadecanoylamino)butanoyl]-[His14,Arg17,Pro21,Pro27,His34]-h-amylin (peptide)
peptide: K([γGlu-C20 diacid])CNTATCATQRLAHFLRHSSPNFGAIPSSTNVGHNTY-NH2
modifications: disulfide 2-7; N-terminus assumed
SMILES: CC[C@H](C)[C@H](NC(=O)[C@H](C)NC(=O)CNC(=O)[C@H](Cc1ccccc1)NC(=O)[C@H](CC(N)=O)NC(=O)[C@@H]1CCCN1C(=O)[C@H](CO)NC(=O)[C@H](CO)NC(=O)[C@H](Cc1c[nH]cn1)NC(=O)[C@H](CCCNC(=N)N)NC(=O)[C@H](CC(C)C)NC(=O)[C@H](Cc1ccccc1)NC(=O)[C@H](Cc1c[nH]cn1)NC(=O)[C@H](C)NC(=O)[C@H](CC(C)C)NC(=O)[C@H](CCCNC(=N)N)NC(=O)[C@H](CCC(N)=O)NC(=O)[C@@H](NC(=O)[C@H](C)NC(=O)[C@@H]1CSSC[C@H](NC(=O)[C@@H](N)CCCCNC(=O)CC[C@H](NC(=O)CCCCCCCCCCCCCCCCCCC(=O)O)C(=O)O)C(=O)N[C@@H](CC(N)=O)C(=O)N[C@@H]([C@@H](C)O)C(=O)N[C@@H](C)C(=O)N[C@@H]([C@@H](C)O)C(=O)N1)[C@@H](C)O)C(=O)N1CCC[C@H]1C(=O)N[C@@H](CO)C(=O)N[C@@H](CO)C(=O)N[C@H](C(=O)N[C@@H](CC(N)=O)C(=O)N[C@H](C(=O)NCC(=O)N[C@@H](Cc1c[nH]cn1)C(=O)N[C@@H](CC(N)=O)C(=O)N[C@H](C(=O)N[C@@H](Cc1ccc(O)cc1)C(N)=O)[C@@H](C)O)C(C)C)[C@@H](C)O
notes: also called compound 81
hAmylin-R funct. EC50 [1]: 130 pM | hCTR funct. EC50 [2]: 1730 pM

B6: N^ε1-[(4S)-4-carboxy-4-(19-carboxynonadecanoylamino)butanoyl]-[His14,Arg17,Pro21,Pro27,His35]-h-amylin (peptide)
peptide: K([γGlu-C20 diacid])CNTATCATQRLAHFLRHSSPNFGAIPSSTNVGSHTY-NH2
modifications: disulfide 2-7; N-terminus assumed
SMILES: CC[C@H](C)[C@H](NC(=O)[C@H](C)NC(=O)CNC(=O)[C@H](Cc1ccccc1)NC(=O)[C@H](CC(N)=O)NC(=O)[C@@H]1CCCN1C(=O)[C@H](CO)NC(=O)[C@H](CO)NC(=O)[C@H](Cc1c[nH]cn1)NC(=O)[C@H](CCCNC(=N)N)NC(=O)[C@H](CC(C)C)NC(=O)[C@H](Cc1ccccc1)NC(=O)[C@H](Cc1c[nH]cn1)NC(=O)[C@H](C)NC(=O)[C@H](CC(C)C)NC(=O)[C@H](CCCNC(=N)N)NC(=O)[C@H](CCC(N)=O)NC(=O)[C@@H](NC(=O)[C@H](C)NC(=O)[C@@H]1CSSC[C@H](NC(=O)[C@@H](N)CCCCNC(=O)CC[C@H](NC(=O)CCCCCCCCCCCCCCCCCCC(=O)O)C(=O)O)C(=O)N[C@@H](CC(N)=O)C(=O)N[C@@H]([C@@H](C)O)C(=O)N[C@@H](C)C(=O)N[C@@H]([C@@H](C)O)C(=O)N1)[C@@H](C)O)C(=O)N1CCC[C@H]1C(=O)N[C@@H](CO)C(=O)N[C@@H](CO)C(=O)N[C@H](C(=O)N[C@@H](CC(N)=O)C(=O)N[C@H](C(=O)NCC(=O)N[C@@H](CO)C(=O)N[C@@H](Cc1c[nH]cn1)C(=O)N[C@H](C(=O)N[C@@H](Cc1ccc(O)cc1)C(N)=O)[C@@H](C)O)C(C)C)[C@@H](C)O
notes: also called compound 66
hAmylin-R funct. EC50 [1]: 27 pM | hCTR funct. EC50 [2]: 542 pM

Now from value to binder:

hAmylin-R funct. EC50 [1]: 44 pM | hCTR funct. EC50 [2]: 539 pM
B3: N^ε1-[(4S)-4-carboxy-4-(19-carboxynonadecanoylamino)butanoyl]-[His14,Arg17,Pro21,Pro27,Pro31]-h-amylin (peptide)
peptide: K([γGlu-C20 diacid])CNTATCATQRLAHFLRHSSPNFGAIPSSTPVGSNTY-NH2
modifications: disulfide 2-7; N-terminus assumed
SMILES: CC[C@H](C)[C@H](NC(=O)[C@H](C)NC(=O)CNC(=O)[C@H](Cc1ccccc1)NC(=O)[C@H](CC(N)=O)NC(=O)[C@@H]1CCCN1C(=O)[C@H](CO)NC(=O)[C@H](CO)NC(=O)[C@H](Cc1c[nH]cn1)NC(=O)[C@H](CCCNC(=N)N)NC(=O)[C@H](CC(C)C)NC(=O)[C@H](Cc1ccccc1)NC(=O)[C@H](Cc1c[nH]cn1)NC(=O)[C@H](C)NC(=O)[C@H](CC(C)C)NC(=O)[C@H](CCCNC(=N)N)NC(=O)[C@H](CCC(N)=O)NC(=O)[C@@H](NC(=O)[C@H](C)NC(=O)[C@@H]1CSSC[C@H](NC(=O)[C@@H](N)CCCCNC(=O)CC[C@H](NC(=O)CCCCCCCCCCCCCCCCCCC(=O)O)C(=O)O)C(=O)N[C@@H](CC(N)=O)C(=O)N[C@@H]([C@@H](C)O)C(=O)N[C@@H](C)C(=O)N[C@@H]([C@@H](C)O)C(=O)N1)[C@@H](C)O)C(=O)N1CCC[C@H]1C(=O)N[C@@H](CO)C(=O)N[C@@H](CO)C(=O)N[C@H](C(=O)N1CCC[C@H]1C(=O)N[C@H](C(=O)NCC(=O)N[C@@H](CO)C(=O)N[C@@H](CC(N)=O)C(=O)N[C@H](C(=O)N[C@@H](Cc1ccc(O)cc1)C(N)=O)[C@@H](C)O)C(C)C)[C@@H](C)O
notes: also called compound 62

Ratio hCT/hAmylin funct. [1]: 64.4 | hAmylin-R funct. EC50 [1]: 298 pM | hCTR funct. EC50 [2]: 19200 pM
B5: N^ε1-[(4S)-4-carboxy-4-[[(4S)-4-carboxy-4-(19-carboxynonadecanoylamino)butanoyl]amino]butanoyl]-[Arg17,Pro21,Pro27,His34]-h-amylin (peptide)
peptide: K([γGlu-γGlu-C20 diacid])CNTATCATQRLANFLRHSSPNFGAIPSSTNVGHNTY-NH2
modifications: disulfide 2-7; N-terminus assumed
SMILES: CC[C@H](C)[C@H](NC(=O)[C@H](C)NC(=O)CNC(=O)[C@H](Cc1ccccc1)NC(=O)[C@H](CC(N)=O)NC(=O)[C@@H]1CCCN1C(=O)[C@H](CO)NC(=O)[C@H](CO)NC(=O)[C@H](Cc1c[nH]cn1)NC(=O)[C@H](CCCNC(=N)N)NC(=O)[C@H](CC(C)C)NC(=O)[C@H](Cc1ccccc1)NC(=O)[C@H](CC(N)=O)NC(=O)[C@H](C)NC(=O)[C@H](CC(C)C)NC(=O)[C@H](CCCNC(=N)N)NC(=O)[C@H](CCC(N)=O)NC(=O)[C@@H](NC(=O)[C@H](C)NC(=O)[C@@H]1CSSC[C@H](NC(=O)[C@@H](N)CCCCNC(=O)CC[C@H](NC(=O)CC[C@H](NC(=O)CCCCCCCCCCCCCCCCCCC(=O)O)C(=O)O)C(=O)O)C(=O)N[C@@H](CC(N)=O)C(=O)N[C@@H]([C@@H](C)O)C(=O)N[C@@H](C)C(=O)N[C@@H]([C@@H](C)O)C(=O)N1)[C@@H](C)O)C(=O)N1CCC[C@H]1C(=O)N[C@@H](CO)C(=O)N[C@@H](CO)C(=O)N[C@H](C(=O)N[C@@H](CC(N)=O)C(=O)N[C@H](C(=O)NCC(=O)N[C@@H](Cc1c[nH]cn1)C(=O)N[C@@H](CC(N)=O)C(=O)N[C@H](C(=O)N[C@@H](Cc1ccc(O)cc1)C(N)=O)[C@@H](C)O)C(C)C)[C@@H](C)O
notes: also called compound 86
